Laboratory results taken from ChEMBL document CHEMBL2073963, “Transport of methotrexate (MTX) and folates by multidrug resistance protein (MRP) 3 and MRP1: effect of polyglutamylation on MTX transport” (Cancer Res, 2001).

Key:
Type in all cases: functional, cell membranes
[1] = substrate: CN(Cc1cnc2nc(N)nc(N)c2n1)c1ccc(C(=O)N[C@@H](CCC(=O)O)C(=O)O)cc1; assay: (§1) TP_TRANSPORTER: uptake in membrane vesicles from MRP3-expressing HEK293 cells; conditions: Membrane vesicle
[2] = substrate: Nc1nc(=O)c2c([nH]1)NCC(CNc1ccc(C(=O)N[C@@H](CCC(=O)O)C(=O)O)cc1)N2C=O; assay: as §1; conditions: Membrane vesicle
[3] = substrate: Nc1nc(=O)c2nc(CNc3ccc(C(=O)N[C@@H](CCC(=O)O)C(=O)O)cc3)cnc2[nH]1; assay: as §1; conditions: Membrane vesicle
[4] = substrate: CN(Cc1cnc2nc(N)nc(N)c2n1)c1ccc(C(=O)N[C@@H](CCC(=O)O)C(=O)O)cc1; assay: TP_TRANSPORTER: uptake in membrane vesicle from MRP1-expressing NIH3T3 cells

B1: Multidrug resistance associated protein (Homo sapiens), Q96QA9 (protein)
chain: MDALCGSGELGSKFWDSNLSVHTENPDLTPCFQNSLLAWVPCIYLWVALPCYLLYLRHHCRGYIILSHLSKLKMVLGVLLWCVSWADLFYSFHGLVHGRAPAPVFFVTPLVVGVTMLLATLLIQYERLQGVQSSGVLIIFWFLCVVCAIVPFRSKILLAKAEGEISDPFRFTTFYIHFALVLSALILACFREKPPFFSAKNVDPNPYPETSAGFLSRLFFWWFTKMAIYGYRHPLEEKDLWSLKEEDRSQMVVQQLLEAWRKQEKQTARHKASAAPGKNASGEDEVLLGARPRPRKPSFLKALLATFGSSFLISACFKLIQDLLSFINPQLLSILIRFISNPMAPSWWGFLVAGLMFLCSMMQSLILQHYYHYIFVTGVKFRTGIMGVIYRKALVITNSVKRASTVGEIVNLMSVDAQRFMDLAPFLNLLWSAPLQIILAIYFLWQNLGPSVLAGVAFMVLLIPLNGAVAVKMRAFQVKQMKLKDSRIKLMSEILNGIKVLKLYAWEPSFLKQVEGIRQGELQLLRTAAYLHTTTTFTWMCSPFLVTLITLWVYVYVDPNNVLDAEKAFVSVSLFNILRLPLNMLPQLISNLTQASVSLKRIQQFLSQEELDPQSVERKTISPGYAITIHSGTFTWAQDLPPTLHSLDIQVPKGALVAVVGPVGCGKSSLVSALLGEMEKLEGKVHMKGSVAYVPQQAWIQNCTLQENVLFGKALNPKRYQQTLEACALLADLEMLPGGDQTEIGEKGINLSGGQRQRVSLARAVYSDADIFLLDDPLSAVDSHVAKHIFDHVIGPEGVLAGKTRVLVTHGISFLPQTDFIIVLADGQVSEMGPYPALLQRNGSFANFLCNYAPDEDQGHLEDSWTALEGAEDKEALLIEDTLSNHTDLTDNDPVTYVVQKQFMRQLSALSSDGEGQGRPVPRRHLGPSEKVQVTEAKADGALTQEEKAAIGTVELSVFWDYAKAVGLCTTLAICLLYVGQSAAAIGANVWLSAWTNDAMADSRQNNTSLRLGVYAALGILQGFLVMLAAMAMAAGGIQAARVLHQALLHNKIRSPQSFFDTTPSGRILNCFSKDIYVVDEVLAPVILMLLNSFFNAISTLVVIMASTPLFTVVILPLAVLYTLVQRFYAATSRQLKRLESVSRSPIYSHFSETVTGASVIRAYNRSRDFEIISDTKVDANQRSCYPYIISNRWLSIGVEFVGNCVVLFAALFAVIGRSSLNPGLVGLSVSYSLQVTFALNWMIRMMSDLESNIVAVERVKEYSKTETEAPWVVEGSRPPEGWPPRGEVEFRNYSVRYRPGLDLVLRDLSLHVHGGEKVGIVGRTGAGKSSMTLCLFRILEAAKGEIRIDGLNVADIGDPILFSGTLRMNLDPFGSYSEEDIWWALELSHLHTFVSSQPAGLDFQCSEGGENLSVGQRQLVCLARALLRKSRILVLDEATAAIDLETDNLIQATIRTQFDTCTVLTIAHRLNTIMDYTRVLVLDKGVVAEFDSPANLIAARGIFYGMARDAGLA
**Q.** B1 was tested. Which Km [1] did it give?
**A.** The Km was 620 µM.

**Q.** What about the Km [2] of the same protein?
**A.** Its Km is 1740 µM.

**Q.** What about the Km [3] of the same protein?
**A.** The Km was 1960 µM.

B2: Multidrug resistance-associated protein 1 (Homo sapiens) (protein)
chain: MALRGFCSADGSDPLWDWNVTWNTSNPDFTKCFQNTVLVWVPCFYLWACFPFYFLYLSRHDRGYIQMTPLNKTKTALGFLLWIVCWADLFYSFWERSRGIFLAPVFLVSPTLLGITMLLATFLIQLERRKGVQSSGIMLTFWLVALVCALAILRSKIMTALKEDAQVDLFRDITFYVYFSLLLIQLVLSCFSDRSPLFSETIHDPNPCPESSASFLSRITFWWITGLIVRGYRQPLEGSDLWSLNKEDTSEQVVPVLVKNWKKECAKTRKQPVKVVYSSKDPAQPKESSKVDANEEVEALIVKSPQKEWNPSLFKVLYKTFGPYFLMSFFFKAIHDLMMFSGPQILKLLIKFVNDTKAPDWQGYFYTVLLFVTACLQTLVLHQYFHICFVSGMRIKTAVIGAVYRKALVITNSARKSSTVGEIVNLMSVDAQRFMDLATYINMIWSAPLQVILALYLLWLNLGPSVLAGVAVMVLMVPVNAVMAMKTKTYQVAHMKSKDNRIKLMNEILNGIKVLKLYAWELAFKDKVLAIRQEELKVLKKSAYLSAVGTFTWVCTPFLVALCTFAVYVTIDENNILDAQTAFVSLALFNILRFPLNILPMVISSIVQASVSLKRLRIFLSHEELEPDSIERRPVKDGGGTNSITVRNATFTWARSDPPTLNGITFSIPEGALVAVVGQVGCGKSSLLSALLAEMDKVEGHVAIKGSVAYVPQQAWIQNDSLRENILFGCQLEEPYYRSVIQACALLPDLEILPSGDRTEIGEKGVNLSGGQKQRVSLARAVYSNADIYLFDDPLSAVDAHVGKHIFENVIGPKGMLKNKTRILVTHSMSYLPQVDVIIVMSGGKISEMGSYQELLARDGAFAEFLRTYASTEQEQDAEENGVTGVSGPGKEAKQMENGMLVTDSAGKQLQRQLSSSSSYSGDISRHHNSTAELQKAEAKKEETWKLMEADKAQTGQVKLSVYWDYMKAIGLFISFLSIFLFMCNHVSALASNYWLSLWTDDPIVNGTQEHTKVRLSVYGALGISQGIAVFGYSMAVSIGGILASRCLHVDLLHSILRSPMSFFERTPSGNLVNRFSKELDTVDSMIPEVIKMFMGSLFNVIGACIVILLATPIAAIIIPPLGLIYFFVQRFYVASSRQLKRLESVSRSPVYSHFNETLLGVSVIRAFEEQERFIHQSDLKVDENQKAYYPSIVANRWLAVRLECVGNCIVLFAALFAVISRHSLSAGLVGLSVSYSLQVTTYLNWLVRMSSEMETNIVAVERLKEYSETEKEAPWQIQETAPPSSWPQVGRVEFRNYCLRYREDLDFVLRHINVTINGGEKVGIVGRTGAGKSSLTLGLFRINESAEGEIIIDGINIAKIGLHDLRFKITIIPQDPVLFSGSLRMNLDPFSQYSDEEVWTSLELAHLKDFVSALPDKLDHECAEGGENLSVGQRQLVCLARALLRKTKILVLDEATAAVDLETDDLIQSTIRTQFEDCTVLTIAHRLNTIMDYTRVIVLDKGEIQEYGAPSDLLQQRGLFYSMAKDAGLV
**Q.** B2 was tested. Which Km [4] did it give?
**A.** Its Km is 2150 µM.
